Measured values taken from patent US20220332804A1 (CSL INNOVATION, published 2022).

How the values were obtained:
Assay in all cases: SPR; KD relative to WT C2;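 further: biacore SPR at 37 °C, anti-C2 mAbs captured on an anti-human IgG chip, alanine or serine C2 surface mutants tested, KD from 1:1 fit compared with wild-type C2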
human C2 I272A = molecular target: T1, human C2 I272A (human, UniProt P06681 21-752)
T1 sequence: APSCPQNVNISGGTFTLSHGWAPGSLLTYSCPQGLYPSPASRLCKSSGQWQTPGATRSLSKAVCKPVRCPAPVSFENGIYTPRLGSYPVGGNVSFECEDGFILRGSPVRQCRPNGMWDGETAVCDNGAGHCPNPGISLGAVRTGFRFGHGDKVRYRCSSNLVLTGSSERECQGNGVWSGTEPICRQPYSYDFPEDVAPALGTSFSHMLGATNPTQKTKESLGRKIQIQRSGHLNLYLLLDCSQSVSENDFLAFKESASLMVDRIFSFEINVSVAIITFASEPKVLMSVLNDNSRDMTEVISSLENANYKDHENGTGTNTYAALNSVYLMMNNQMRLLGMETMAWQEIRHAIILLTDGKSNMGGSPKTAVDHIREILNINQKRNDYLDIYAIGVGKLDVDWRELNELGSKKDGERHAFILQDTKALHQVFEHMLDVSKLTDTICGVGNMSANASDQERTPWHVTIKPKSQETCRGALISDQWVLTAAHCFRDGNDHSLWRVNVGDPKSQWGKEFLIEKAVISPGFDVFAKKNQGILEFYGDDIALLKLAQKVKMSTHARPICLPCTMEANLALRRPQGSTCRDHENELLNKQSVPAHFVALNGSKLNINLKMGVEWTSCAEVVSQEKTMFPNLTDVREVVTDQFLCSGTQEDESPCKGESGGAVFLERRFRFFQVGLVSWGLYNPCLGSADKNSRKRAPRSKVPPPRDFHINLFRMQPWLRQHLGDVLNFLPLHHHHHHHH

human C2 A472S = molecular target: T2, human C2 A472S (human, UniProt P06681 21-752)
T2 sequence: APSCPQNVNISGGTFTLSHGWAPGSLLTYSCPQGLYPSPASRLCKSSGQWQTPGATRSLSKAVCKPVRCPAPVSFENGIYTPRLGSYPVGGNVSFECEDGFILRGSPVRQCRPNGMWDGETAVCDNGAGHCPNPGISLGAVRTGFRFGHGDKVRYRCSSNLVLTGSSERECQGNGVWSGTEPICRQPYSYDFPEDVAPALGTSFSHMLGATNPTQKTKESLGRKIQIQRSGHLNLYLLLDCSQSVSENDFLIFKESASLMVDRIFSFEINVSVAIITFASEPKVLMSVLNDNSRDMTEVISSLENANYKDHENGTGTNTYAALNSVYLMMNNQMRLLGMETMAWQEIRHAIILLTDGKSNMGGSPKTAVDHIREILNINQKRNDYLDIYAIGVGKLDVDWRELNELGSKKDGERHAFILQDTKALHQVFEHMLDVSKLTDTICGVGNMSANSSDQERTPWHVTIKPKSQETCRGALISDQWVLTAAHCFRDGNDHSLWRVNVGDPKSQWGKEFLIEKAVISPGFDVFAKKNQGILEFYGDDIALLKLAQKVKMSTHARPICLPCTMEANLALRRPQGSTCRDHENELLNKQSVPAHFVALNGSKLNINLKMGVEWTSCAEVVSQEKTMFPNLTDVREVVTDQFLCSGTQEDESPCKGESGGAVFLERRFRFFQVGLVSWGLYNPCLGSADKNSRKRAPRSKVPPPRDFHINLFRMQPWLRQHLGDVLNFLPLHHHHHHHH

human C2 W420A = molecular target: T3, human C2 W420A (human, UniProt P06681 21-752)
T3 sequence: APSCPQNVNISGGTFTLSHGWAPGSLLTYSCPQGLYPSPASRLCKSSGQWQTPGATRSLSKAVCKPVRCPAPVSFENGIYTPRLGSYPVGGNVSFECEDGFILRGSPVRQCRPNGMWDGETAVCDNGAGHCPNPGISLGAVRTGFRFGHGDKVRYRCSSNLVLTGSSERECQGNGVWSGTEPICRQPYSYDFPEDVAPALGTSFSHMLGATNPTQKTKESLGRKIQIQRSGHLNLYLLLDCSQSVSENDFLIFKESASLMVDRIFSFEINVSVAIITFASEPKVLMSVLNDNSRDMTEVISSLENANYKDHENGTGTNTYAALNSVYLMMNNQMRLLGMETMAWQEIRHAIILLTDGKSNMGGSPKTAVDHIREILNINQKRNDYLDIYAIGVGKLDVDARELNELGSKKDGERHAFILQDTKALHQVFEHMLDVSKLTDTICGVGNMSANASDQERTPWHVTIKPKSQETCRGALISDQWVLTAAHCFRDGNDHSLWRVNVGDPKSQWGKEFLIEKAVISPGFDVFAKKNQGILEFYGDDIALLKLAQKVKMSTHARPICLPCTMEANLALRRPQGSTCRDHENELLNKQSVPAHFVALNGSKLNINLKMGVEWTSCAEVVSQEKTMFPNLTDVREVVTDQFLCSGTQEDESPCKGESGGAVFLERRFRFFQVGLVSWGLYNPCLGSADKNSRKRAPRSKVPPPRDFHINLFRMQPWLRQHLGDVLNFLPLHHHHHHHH

human C2 L620A = molecular target: T4, human C2 L620A (human, UniProt P06681 21-752)
T4 sequence: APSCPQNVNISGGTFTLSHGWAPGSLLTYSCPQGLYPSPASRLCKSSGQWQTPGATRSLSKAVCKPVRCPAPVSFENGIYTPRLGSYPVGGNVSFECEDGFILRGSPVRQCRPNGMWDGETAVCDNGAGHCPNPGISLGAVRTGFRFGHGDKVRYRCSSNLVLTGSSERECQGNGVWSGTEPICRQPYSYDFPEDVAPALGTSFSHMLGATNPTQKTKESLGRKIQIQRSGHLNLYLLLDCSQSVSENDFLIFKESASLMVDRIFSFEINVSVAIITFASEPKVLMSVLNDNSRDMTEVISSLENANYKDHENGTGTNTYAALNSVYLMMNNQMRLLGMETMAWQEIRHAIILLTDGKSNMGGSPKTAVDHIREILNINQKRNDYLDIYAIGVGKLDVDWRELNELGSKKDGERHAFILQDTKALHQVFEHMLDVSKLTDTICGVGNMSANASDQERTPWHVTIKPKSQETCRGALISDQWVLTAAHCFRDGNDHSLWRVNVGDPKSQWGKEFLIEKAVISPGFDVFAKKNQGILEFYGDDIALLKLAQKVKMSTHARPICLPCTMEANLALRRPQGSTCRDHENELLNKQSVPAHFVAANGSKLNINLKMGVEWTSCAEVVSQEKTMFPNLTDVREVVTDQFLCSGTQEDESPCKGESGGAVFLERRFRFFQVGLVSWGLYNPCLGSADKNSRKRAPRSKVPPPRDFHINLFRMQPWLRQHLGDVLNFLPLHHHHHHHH

B1: RF16-214 (antibody, V domains shown)
VH: EVQLLESGGGLVQPGGSLRLSCAASGFTFSWYQMMWVRQAPGKGLEWVSRIYPSGGGTAYADSVKGRFTISRDNSKNTLYLQMNSLRAEDTAVYYCARDAGYGDNWGQGTLVTVSS
VL: QSALTQPPSVSVSPGQTASITCSGDKLGEKYASWYQQKAGQSPVMVIYQDRKRPSGIPERFSGSNSGNTATLTISGTQAMDEADYYCQAWDTRAVVFGGGTKLTVLG
Fold diff (human C2 I272A): 15 fold | Fold diff (human C2 A472S): 8 fold | Fold diff (human C2 W420A): 1 fold | Fold diff (human C2 L620A): 1 fold
